These results are taken from US20030166232A1 (LUDWIG INSTITUTE FOR CANCER RESEARCH, published 2003).

To fix the notation:
B3: PARG (PTPL1 Associated RhoGAP), the 150 kDa component from PC-3 cell lysate (other)
chain: MIAHKQKKTKKKRAWASGQLSTDITTSEMGLKSLSSNSIFDPDYIKELVNDIRKFSHILLYLKEAIFSDCFKEVIHIRLEELLRVLKSIMNKHQNLNSVDLQNAAEMLTAKVKAVNFTEVNEENKNDLFQEVFSSIETLAFTFGNILTNFLMGDVGNDSFLRLPVSRETKSFENVSVESVDSSSEKGNFSPLELDNVLLKNTDSIELALSYAKTWSKYTKNIVSWVEKKLNLELESTRNMVKLAEATRTNIGIQEFMPLQSLFTNALLNDIESSHLLQQTIAALQANKFVQPLLGRKNEMEKQRKEIKELWKQEQNKMLEAENALKKAKLLCMQRQDEYEKAKSSMFRAEEEHLSSSGGLAKNLNKQLEKKRRLEEEALQKVEEADELYKVCVTNVEERRNDVENTKREILAQLRTLVFQCDLTLKAVTVNLFHMQHLQAASLADRLQSLCGSAKLYDPGQEYSEFVKATNSTEEEKVDGNVNKHLNSSQPSGFGPANSLEDVVRLPDSSNKIEEDRCSNSADITGPSFIRSWTFGMFSDSESTGGSSESRSLDSESISPGDFHRKLPRTPSSGTMSSADDLDEREPPSPSETGPNSLGTFKKTLMSKAALTHKFRKLRSPTKCRDCEGIVVFQGVECEECLLVCHRKCLENLVIICGHQKLPGKIHLFGAEFTLVAKKEPDGIPFILKICASEIENRALCLQGIYRVCGNKIKTEKLCLALENGMHLVDISEFSSHDICDVLKLYLRQLPEPFILFRLYKEFIDLAKEIQHVNEEQETKKNSLEDKKWPNMCIEINRILLKSKDLLRQLPASNFNSLHFLIVHLKRVVDHAEENKMNSKNLGVIFGPSLIRPRPQTAPITISSLAEYSNQARLVEFLITYSQKIFDGSLQPQDVMCSIGVVDQGCFPKPLLSPEERDIERSMKSLFFSSKEDIHTSESESKIFERATSFEESERKQNALGKCDACLSDKAQLLLDQEAESASQKIEDGKAPKPLSLKSDRSTNNVERHTPRTKIRPVSLPVDRLLLASPPNERNGRNMGNVNLDKFCKNPAFEGVNRKDAATTVCSKFNGFDQQTLQKIQDKQYEQNSLTAKTTMIMPSALQEKGVTTSLQISGDHSINATQPSKPYAEPVRSVREASERRSSDSYPLAPVRAPRTLQPQHWTTFYKPHAPIISIRGNEEKPASPSAACPPGTDHDPHGLVVKSMPDPDKASACPGQATGQPKEDSEELGLPDVNPMCQRPRLKRMQQFEDLEDEIPQFV
notes: In the pull-down it was the endogenous, 35S-labelled 150 kDa protein in PC-3 cell lysate; also called 150 kDa protein

Holding throughout (assay): GST pull-down from 35S-labelled PC-3 cell lysate, SDS-gel, fluorography
Test [1] addresses B3. Here is the method: (§1) PC-3 cells were obtained from American Type Culture Collection (Rockville, Md.) and cultured as described (Saras et al., 1994). Metabolic labeling of PC-3 cells was performed for 4 h in methionine-and cysteine-free MCDB 104 medium (Gibco/Life Technologies, Gaithersburg, Md.) with […] of ³⁵S-methionine and ³⁵S-cysteine (in vivo labeling mix; Amersham, Arlington Heights, Ill.). After labeling, the cells were solubilized in buffer containing 20 mM Tris-HCI, pH 7.4,150 mM NaCl, 10 mM EDTA, 0.5% Triton X-100, 0.5% deoxycholate, 1 mM dithiothreitol, 1.5% Trasylol (Bayer, Germany) and 1 mM phenylmethylsulfonyl fluoride (Sigma, St. Louis, Mo.). After 15 min on ice, cell debris was removed by centrifugation. Samples (1 ml) were then incubated for 1.5 h at 4° C. with 10 μg of GST-PDZ fusion proteins bound to glutathione-Sepharose 4B beads (Pharmacia). The beads were pelleted and washed four times with solubilization buffer. The protein complexes were eluted by boiling for 5 min in SDS-sample buffer (100 mM Tris-HCI, pH 8.8, 0.01% bromophenol blue, 36% glycerol, 4% SDS, 10 mM dithiothreitol) and analyzed by SDS-gel electrophoresis using 5-12% polyacrylamide gels (Blobel and Dobberstein, J. Cell Biol. 67:835-851, 1975). The gel was fixed, incubated with Amplify (Amersham) for 20 min, dried and subjected to fluorography.

Test [2] has as its target T1, GST-PDZ 2-3 (glutathione S-transferase fused to PTPL1 residues 1340-1579) (Homo sapiens (Human), UniProt Q12923 1359-1598).
T1 construct: not shown: glutathione S-transferase (GST) encoded by the expression vector pGEX1 lambda T (Pharmacia)
T1 sequence: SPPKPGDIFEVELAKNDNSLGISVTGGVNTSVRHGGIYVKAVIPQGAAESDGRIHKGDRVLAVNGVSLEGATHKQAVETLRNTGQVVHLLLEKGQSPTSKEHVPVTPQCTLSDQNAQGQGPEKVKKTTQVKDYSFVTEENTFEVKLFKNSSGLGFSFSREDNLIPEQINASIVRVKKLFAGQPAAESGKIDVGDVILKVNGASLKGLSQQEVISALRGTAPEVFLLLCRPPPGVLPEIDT
Here is the method: as §1

In test [3] the target is T2, GST-PDZ 5 (glutathione S-transferase fused to PTPL1 residues 1856-1960) (Homo sapiens (Human), UniProt Q12923 1875-1979).
T2 construct: not shown: glutathione S-transferase (GST) encoded by the expression vector pGEX1 lambda T (Pharmacia)
T2 sequence: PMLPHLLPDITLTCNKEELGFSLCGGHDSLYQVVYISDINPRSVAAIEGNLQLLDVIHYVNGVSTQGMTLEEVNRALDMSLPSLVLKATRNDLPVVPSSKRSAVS
On the procedure: as §1

B1: GST-PDZ 1 (glutathione S-transferase fused to PTPL1 residues 1066-1166) (other)
chain: SSPEREITLVNLKKDAKYGLGFQIIGGEKMGRLDLGIFISSVAPGGPADFHGCLKPGDRLISVNSVSLEGVSHHAAIEILQNAPEDVTLVISQPKEKISKV
notes: not shown: glutathione S-transferase (GST) encoded by the expression vector pGEX1 lambda T (Pharmacia)
Turning to B1, in test [1], the binding result is “no binding (tested: 10 µg of GST-PDZ fusion protein)”.

B2: GST-PDZ 3 (glutathione S-transferase fused to PTPL1 residues 1469-1579) (other)
chain: VKDYSFVTEENTFEVKLFKNSSGLGFSFSREDNLIPEQINASIVRVKKLFAGQPAAESGKIDVGDVILKVNGASLKGLSQQEVISALRGTAPEVFLLLCRPPPGVLPEIDT
notes: as for B1
As to B2, the binding result in test [1] is reported as “no binding (tested: 10 µg of GST-PDZ fusion protein)”. Turning to B3, the binding result in test [2] and in test [3] was “no binding (tested: 10 µg of GST-PDZ fusion protein)” throughout.
